Reference: paper PMC8495968 (2021)
Ends that are not written are not given here. * marks the point of attachment. FITC = O=C1OC2(c3ccc(O)cc3Oc3cc(O)ccc32)c2ccc(NC(=S)*)cc21; Ahx = NCCCCCC(=O)O

Target: MCL-1 (Homo sapiens, UniProt Q07820)
Test: fluorescence anisotropy direct titration

Chain of MCL-1 (Q07820 whole entry): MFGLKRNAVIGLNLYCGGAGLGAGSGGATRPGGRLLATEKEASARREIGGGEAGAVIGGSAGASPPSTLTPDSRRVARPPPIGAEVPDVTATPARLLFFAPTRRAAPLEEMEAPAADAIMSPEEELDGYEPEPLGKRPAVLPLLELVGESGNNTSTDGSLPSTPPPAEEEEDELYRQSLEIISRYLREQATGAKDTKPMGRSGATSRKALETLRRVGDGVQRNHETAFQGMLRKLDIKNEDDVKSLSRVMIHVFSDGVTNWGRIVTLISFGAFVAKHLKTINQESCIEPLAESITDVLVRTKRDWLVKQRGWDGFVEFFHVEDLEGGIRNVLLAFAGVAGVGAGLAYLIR

Question: With {FITC-Ahx}-TRSPLFIFMRR [FITC-Ahx-BIM75–85 75-85] as the binder, how does the Kd read?
Answer: Its Kd is 204 nM.
